# From IntAct's records for PubMed 19798056
# B1: TOM1-like protein 1 (Homo sapiens), O75674 (parent)
# chain: MAFGKSHRDPYATSVGHLIEKATFAGVQTEDWGQFMHICDIINTTQDGPKDAVKALKKRISKNYNHKEIQLTLSLIDMCVQNCGPSFQSLIVKKEFVKENLVKLLNPRYNLPLDIQNRILNFIKTWSQGFPGGVDVSEVKEVYLDLVKKGVQFPPSEAEAETARQETAQISSNPPTSVPTAPALSSVIAPKNSTVTLVPEQIGKLHSELDMVKMNVRVMSAILMENTPGSENHEDIELLQKLYKTGREMQERIMDLLVVVENEDVTVELIQVNEDLNNAILGYERFTRNQQRILEQNKNQKEATNTTSEPSAPSQDLLDLSPSPRMPRATLGELNTMNNQLSGLNFSLPSSDVTNNLKPSLHPQMNLLALENTEIPPFAQRTSQNLTSSHAYDNFLEHSNSVFLQPVSLQTIAAAPSNQSLPPLPSNHPAMTKSDLQPPNYYEVMEFDPLAPAVTTEAIYEEIDAHQHKGAQNDGD
# Variants of: B1
# Conditions: with grb2_human GRB2, P62993
# Sequence of grb2_human GRB2, P62993 (P62993 whole entry, looked up): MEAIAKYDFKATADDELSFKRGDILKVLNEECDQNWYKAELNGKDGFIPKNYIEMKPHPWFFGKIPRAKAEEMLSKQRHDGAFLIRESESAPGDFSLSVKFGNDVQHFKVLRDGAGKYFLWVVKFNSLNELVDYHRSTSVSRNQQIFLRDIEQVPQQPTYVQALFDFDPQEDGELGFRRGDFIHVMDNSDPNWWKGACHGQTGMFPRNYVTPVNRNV
row,Variant,effect of a mutation on the interaction
1,Y460F,disrupting interaction

# Variants of: B1
# Conditions: with grb2_human GRB2, P62993
# Remark: another data set of the same source
row,Variant,effect of a mutation on the interaction
1,Y392F,disrupting interaction
